Reference: PMC5747488

Columns and labels:
[1] = molecular target: retinoblastoma protein (pRb), endogenous in human cells (human (endogenous in HEK 293T, HeLa)) (UniProt P06400); test: co-IP; HeLa cells transfected with pORFV119^Flag, harvested 12 h post transfection; reciprocal IP (anti-Flag or anti-pRb), high stringency buffer with 300 mM NaCl; Western blot
[2] = molecular target: retinoblastoma protein (pRb), endogenous in human cells (human (endogenous in HEK 293T, HeLa)) (UniProt P06400); test: co-IP; HEK 293T cells transfected with pORFV119^Flag, pORFV119^LxGxE-Flag or pORFV113^Flag, harvested 12 h post transfection; reciprocal IP of total protein extracts (anti-Flag, anti-pRb or anti-TRAF2), high stringency buffer with 300 mM NaCl, overnight at 4°C, protein G agarose; Western blot
[3] = molecular target: retinoblastoma protein (pRb), endogenous in ovine OFTu cells (ovine (endogenous in OFTu)); test: co-IP; OFTu cells infected with Flag-tagged recombinant ORFV (MOI 10), harvested 12 h p.i.; reciprocal IP of total protein extracts (anti-Flag or antibody against the cellular protein), high stringency buffer with 300 mM NaCl, overnight at 4°C, protein G agarose; Western blot
[4] = molecular target: retinoblastoma protein (pRb), endogenous in ovine OFTu cells (ovine (endogenous in OFTu))
[5] = molecular target: ORFV119^Flag expressed by revertant virus OV-IA82-RV119^Flag (orf virus (ORFV) strain OV-IA82); test: co-IP; OFTu cells infected with Flag-tagged recombinant ORFV (MOI 10), harvested 12 h p.i.; reciprocal IP of total protein extracts (anti-Flag or antibody against the cellular protein), high stringency buffer with 300 mM NaCl, overnight at 4°C, protein G agarose; Western blot
[6] = molecular target: ORFV119^Flag (ORFV119-3xFlag fusion protein expressed from plasmid pORFV119^Flag) (orf virus (ORFV) strain OV-IA82); test: co-IP; HeLa cells transfected with pORFV119^Flag, harvested 12 h post transfection; reciprocal IP (anti-Flag or anti-pRb), high stringency buffer with 300 mM NaCl; Western blot
[7] = molecular target: ORFV119^Flag (ORFV119-3xFlag fusion protein expressed from plasmid pORFV119^Flag) (orf virus (ORFV) strain OV-IA82); test: co-IP; HEK 293T cells transfected with pORFV119^Flag, pORFV119^LxGxE-Flag or pORFV113^Flag, harvested 12 h post transfection; reciprocal IP of total protein extracts (anti-Flag, anti-pRb or anti-TRAF2), high stringency buffer with 300 mM NaCl, overnight at 4°C, protein G agarose; Western blot

Work on “ORFV119^Flag (ORFV119-3xFlag fusion protein expressed from plasmid pORFV119^Flag) (natural protein)” yielded a percentage co-immunoprecipitated [1] of 38.7% and a percentage co-immunoprecipitated [2] of 28.4%.

With “ORFV119^Flag expressed by revertant virus OV-IA82-RV119^Flag (natural protein)” the percentage co-immunoprecipitated [3] was 18.5%.

Molecule “ORFV119^LxGxE-Flag expressed by revertant virus OV-IA82-RV119^LxGxE-Flag (natural protein)” has a fold increase of phosphorylated IKKα/β (Ser176/180) in OFTu cells infected with OV-IA82-RV119^LxGxE-Flag relative to OV-IA82, Western blot densitometry, 30 min and 1 h p.i. [4] of 27.4 fold, a fold increase of phosphorylated IκBα (Ser32/36) in OFTu cells infected with OV-IA82-RV119^LxGxE-Flag relative to OV-IA82, Western blot densitometry, 30 min and 1 h p.i. [4] of 21.2 fold and a fold increase of phosphorylated NF-κB-p65 (Ser536) in OFTu cells infected with OV-IA82-RV119^LxGxE-Flag relative to OV-IA82, Western blot densitometry, 30 min and 1 h p.i. [4] of 13.2 fold.

Molecule “retinoblastoma protein (pRb), endogenous in ovine OFTu cells (natural protein)” has a percentage co-immunoprecipitated [5] of 8.7%.

B1: retinoblastoma protein (pRb), endogenous in human cells (natural protein)
chain: MPPKTPRKTAATAAAAAAEPPAPPPPPPPEEDPEQDSGPEDLPLVRLEFEETEEPDFTALCQKLKIPDHVRERAWLTWEKVSSVDGVLGGYIQKKKELWGICIFIAAVDLDEMSFTFTELQKNIEISVHKFFNLLKEIDTSTKVDNAMSRLLKKYDVLFALFSKLERTCELIYLTQPSSSISTEINSALVLKVSWITFLLAKGEVLQMEDDLVISFQLMLCVLDYFIKLSPPMLLKEPYKTAVIPINGSPRTPRRGQNRSARIAKQLENDTRIIEVLCKEHECNIDEVKNVYFKNFIPFMNSLGLVTSNGLPEVENLSKRYEEIYLKNKDLDARLFLDHDKTLQTDSIDSFETQRTPRKSNLDEEVNVIPPHTPVRTVMNTIQQLMMILNSASDQPSENLISYFNNCTVNPKESILKRVKDIGYIFKEKFAKAVGQGCVEIGSQRYKLGVRLYYRVMESMLKSEEERLSIQNFSKLLNDNIFHMSLLACALEVVMATYSRSTSQNLDSGTDLSFPWILNVLNLKAFDFYKVIESFIKAEGNLTREMIKHLERCEHRIMESLAWLSDSPLFDLIKQSKDREGPTDHLESACPLNLPLQNNHTAADMYLSPVRSPKKKGSTTRVNSTANAETQATSAFQTQKPLKSTSLSLFYKKVYRLAYLRLNTLCERLLSEHPELEHIIWTLFQHTLQNEYELMRDRHLDQIMMCSMYGICKVKNIDLKFKIIVTAYKDLPHAVQETFKRVLIKEEEYDSIIVFYNSVFMQRLKTNILQYASTRPPTLSPIPHIPRSPYKFPSSPLRIPGGNIYISPLKSPYKISEGLPTPTKMTPRSRILVSIGESFGTSEKFQKINQMVCNSDRVLKRSAEGSNPPKPLKKLRFDIEGSDEADGSKHLPGESKFQQKLAEMTSTRTRMQKQKMNDSMDTSNKEEK
With B1 the percentage co-immunoprecipitated [6] was 21.5% and the percentage co-immunoprecipitated [7] was 16.7%.
